According to article PMC10765524 (2023):

Experiments:
Test in all cases: FP
[1] = biological target: T1, ARPP19 S104A as used in the fluorescence polarization assay (UniProt P56211 1-112, S104A)
T1 sequence: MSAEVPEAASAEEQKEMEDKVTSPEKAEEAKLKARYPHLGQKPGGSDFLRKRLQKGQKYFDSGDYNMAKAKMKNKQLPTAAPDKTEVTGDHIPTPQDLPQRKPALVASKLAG

[2] = biological target: T2, ARPP19(S10C) labelled with Alexa Fluor 488 (ARPP19-tracer) (UniProt P56211 1-112, S10C, Alexa Fluor 488 C5 Maleimide label)
T2 sequence: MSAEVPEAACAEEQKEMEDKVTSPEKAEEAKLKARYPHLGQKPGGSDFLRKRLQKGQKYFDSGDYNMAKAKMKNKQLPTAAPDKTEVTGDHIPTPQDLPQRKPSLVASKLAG

FAM_(67-120)S120C = FAM_(67-120)S120C (UniProt Q96E09 67-120, S120C, Alexa Fluor 488 C5 Maleimide label)
[3] = biological target: FAM122AID(S120C) (FAM122AID-tracer) (UniProt Q96E09 29-120, S120C, Alexa Fluor 488 C5 Maleimide label (fluorescence polarization assay))

Kd [1]: 326 nM
Kd [2]: 323 nM
Kd (FAM_(67-120)S120C): 827 nM
Kd [3]: 837 nM
B1: B55 loopless (B55LL) (domain or fragment)
chain: MAGAGGGNDIQWCFSQVKGAVDDDVAEADIISTVEFNHSGELLATGDKGGRVVIFQQEQENKIQSHSRGEYNVYSTFQSHEPEFDYLKSLEIEEKINKIRWLPQKNAAQFLLSTNDKTIKLWKISNGEASPRRIFANAHTYHINSISINSDYETYLSADDLRINLWHLEITDRSFNIVDIKPANMEELTEVITAAEFHPNSCNTFVYSSSKGTIRLCDMRASALCDRHSKLFEEPEDPSNRSFFSEIISSISDVKFSHSGRYMMTRDYLSVKIWDLNMENRPVETYQVHEYLRSKLCSLYENDCIFDKFECCWNGSDSVVMTGSYNNFFRMFDRNTKRDITLEASRENNKPRTVLKPRKVCASGKRKKDEISVDSLDFNKKILHTAWHPKENIIAVATTNNLYIFQDKVN
